This note sets out measurements from the supplement of paper PMC12458215.

± gives the uncertainty stated by the source.

This data set deals with HEK293T. As to the kind of experiment: plasma membrane surface immunostaining intensity (anti-HA, deep receptor scanning) (arbitrary fluorescence units); higher = higher plasma membrane expression.

“MVWENQTFNSIFILLGIFNHSPTHTFLFSLVLGIFSLALMENISMVLLIYIEKQLHTPMYFLLSQLSLMDLMLICTTLPKMIFSYLSGKKSISLAGCGTQIFFYVSLLGAECFLLAVMAYDRYVAICHPLQYTILMNPKLCVFMTVASWTLGSLDGIIVLAAVLSFSYCSSLEIHHFFCDVAALLPLSCTETSAFERLLVICCVVMLIFPVSVIILSYSHVLRAVIHMGSGESRRKAFTTCSSHLSVVGLYYGAAMFMYMRPASKHTPDQDKMVSAFYTILTPMLNPLIYSLRNKEVFRALQKVLKKRKLI [OR2M4]”: the “plasma membrane surface immunostaining intensity” value (GPCR class: A (Olfactory)) stood at 172 ± 36.

Regarding “MAVGRNNTIVTKFILLGLSDHPQMKIFLFMLFLGLYLLTLAWNLSLIALIKMDSHLHMPMYFFLSNLSFLDICYVSSTAPKMLSDIITEQKTISFVGCATQYFVFCGMGLTECFLLAAMAYDRYAAICNPLLYTVLISHTLCLKMVVGAYVGGFLSSFIETYSVYQHDFCGPYMINHFFCDLPPVLALSCSDTFTSEVVTFIVSVVVGIVSVLVVLISYGYIVAAVVKISSATGRTKAFSTCASHLTAVTLFYGSGFFMYMRPSSSYSLNRDKVVSIFYALVIPVVNPIIYSFRNKEIKNAMRKAMERDPGISHGGPFIFMTLG [OR5A2]”, the “plasma membrane surface immunostaining intensity” value (GPCR class: A (Olfactory)) was 267 ± 110.

On to “MVNNFSQAEAVELCYKNVNESCIKTPYSPGPRSILYAVLGFGAVLAAFGNLLVMIAILHFKQLHTPTNFLIASLACADFLVGVTVMPFSTVRSVESCWYFGDSYCKFHTCFDTSFCFASLFHLCCISVDRYIAVTDPLTYPTKFTVSVSGICIVLSWFFSVTYSFSIFYTGANEEGIEELVVALTCVGGCQAPLNQNWVLLCFLLFFIPNVAMVFIYSKIFLVAKHQARKIESTASQAQSSSESYKERVAKRERKAAKTLGIAMAAFLVSWLPYLVDAVIDAYMNFITPPYVYEILVWCVYYNSAMNPLIYAFFYQWFGKAIKLIVSGKVLRTDSSTTNLFSEEVETD [TAAR9]”, for which the “plasma membrane surface immunostaining intensity” value (GPCR class: A) was found to be 136 ± 34.

For “MASLSQLSGHLNYTCGAENSTGASQARPHAYYALSYCALILAIVFGNGLVCMAVLKERALQTTTNYLVVSLAVADLLVATLVMPWVVYLEVTGGVWNFSRICCDVFVTLDVMMCTASILNLCAISIDRYTAVVMPVHYQHGTGQSSCRRVALMITAVWVLAFAVSCPLLFGFNTTGDPTVCSISNPDFVIYSSVVSFYLPFGVTVLVYARIYVVLKQRRRKRILTRQNSQCNSVRPGFPQQTLSPDPAHLELKRYYSICQDTALGGPGFQERGGELKREEKTRNSLSPTIAPKLSLEVRKLSNGRLSTSLKLGPLQPRGVPLREKKATQMVAIVLGAFIVCWLPFFLTHVLNTHCQTCHVSPELYSATTWLGYVNSALNPVIYTTFNIEFRKAFLKILSC [DRD3]”, where the note is “GPCR class: A”, the “plasma membrane surface immunostaining intensity” value was determined as 3810 ± 240.

Turning to “MQGPLLLPGLCFLLSLFGAVTQKTKTSCAKCPPNASCVNNTHCTCNHGYTSGSGQKLFTFPLETCNDINECTPPYSVYCGFNAVCYNVEGSFYCQCVPGYRLHSGNEQFSNSNENTCQDTTSSKTTEGRKELQKIVDKFESLLTNQTLWRTEGRQEISSTATTILRDVESKVLETALKDPEQKVLKIQNDSVAIETQAITDNCSEERKTFNLNVQMNSMDIRCSDIIQGDTQGPSAIAFISYSSLGNIINATFFEEMDKKDQVYLNSQVVSAAIGPKRNVSLSKSVTLTFQHVKMTPSTKKVFCVYWKSTGQGSQWSRDGCFLIHVNKSHTMCNCSHLSSFAVLMALTSQEEDPVLTVITYVGLSVSLLCLLLAALTFLLCKAIRNTSTSLHLQLSLCLFLAHLLFLVGIDRTEPKVLCSIIAGALHYLYLAAFTWMLLEGVHLFLTARNLTVVNYSSINRLMKWIMFPVGYGVPAVTVAISAASWPHLYGTADRCWLHLDQGFMWSFLGPVCAIFSANLVLFILVFWILKRKLSSLNSEVSTIQNTRMLAFKATAQLFILGCTWCLGLLQVGPAAQVMAYLFTIINSLQGFFIFLVYCLLSQQVQKQYQKWFREIVKSKSESETYTLSSKMGPDSKPSEGDVFPGQVKRKY [ADGRE3]”, the “plasma membrane surface immunostaining intensity” value (GPCR class: B) worked out at 344 ± 13.

In the case of “MAMTWIVFSLWPLTVFMGHIGGHSLFSCEPITLRMCQDLPYNTTFMPNLLNHYDQQTAALAMEPFHPMVNLDCSRDFRPFLCALYAPICMEYGRVTLPCRRLCQRAYSECSKLMEMFGVPWPEDMECSRFPDCDEPYPRLVDLNLAGEPTEGAPVAVQRDYGFWCPRELKIDPDLGYSFLHVRDCSPPCPNMYFRREELSFARYFIGLISIICLSATLFTFLTFLIDVTRFRYPERPIIFYAVCYMMVSLIFFIGFLLEDRVACNASIPAQYKASTVTQGSHNKACTMLFMILYFFTMAGSVWWVILTITWFLAAVPKWGSEAIEKKALLFHASAWGIPGTLTIILLAMNKIEGDNISGVCFVGLYDVDALRYFVLAPLCLYVVVGVSLLLAGIISLNRVRIEIPLEKENQDKLVKFMIRIGVFSILYLVPLLVVIGCYFYEQAYRGIWETTWIQERCREYHIPCPYQVTQMSRPDLILFLMKYLMALIVGIPSVFWVGSKKTCFEWASFFHGRRKKEIVNESRQVLQEPDFAQSLLRDPNTPIIRKSRGTSTQGTSTHASSTQLAMVDDQRSKAGSIHSKVSSYHGSLHRSRDGRYTPCSYRGMEERLPHGSMSRLTDHSRHSSSHRLNEQSRHSSIRDLSNNPMTHITHGTSMNRVIEEDGTSA [FZD3]”, for the setting “GPCR class: F”, the “plasma membrane surface immunostaining intensity” value worked out at 177 ± 57.

“MKALIFAAAGLLLLLPTFCQSGMENDTNNLAKPTLPIKTFRGAPPNSFEEFPFSALEGWTGATITVKIKCPEESASHLHVKNATMGYLTSSLSTKLIPAIYLLVFVVGVPANAVTLWMLFFRTRSICTTVFYTNLAIADFLFCVTLPFKIAYHLNGNNWVFGEVLCRATTVIFYGNMYCSILLLACISINRYLAIVHPFTYRGLPKHTYALVTCGLVWATVFLYMLPFFILKQEYYLVQPDITTCHDVHNTCESSSPFQLYYFISLAFFGFLIPFVLIIYCYAAIIRTLNAYDHRWLWYVKASLLILVIFTICFAPSNIILIIHHANYYYNNTDGLYFIYLIALCLGSLNSCLDPFLYFLMSKTRNHSTAYLTK [F2RL2]”: where the note is “GPCR class: A”, the “plasma membrane surface immunostaining intensity” value came to 221 ± 21.

With “MEKLLRLCCWYSWLLLFYYNFQVRGVYSRSQDHPGFQVLASASHYWPLENVDGIHELQDTTGDIVEGKVNKGIYLKEEKGVTLLYYGRYNSSCISKPEQCGPEGVTFSFFWKTQGEQSRPIPSAYGGQVISNGFKVCSSGGRGSVELYTRDNSMTWEASFSPPGPYWTHVLFTWKSKEGLKVYVNGTLSTSDPSGKVSRDYGESNVNLVIGSEQDQAKCYENGAFDEFIIWERALTPDEIAMYFTAAIGKHALLSSTLPSLFMTSTASPVMPTDAYHPIITNLTEERKTFQSPGVILSYLQNVSLSLPSKSLSEQTALNLTKTFLKAVGEILLLPGWIALSEDSAVVLSLIDTIDTVMGHVSSNLHGSTPQVTVEGSSAMAEFSVAKILPKTVNSSHYRFPAHGQSFIQIPHEAFHRHAWSTVVGLLYHSMHYYLNNIWPAHTKIAEAMHHQDCLLFATSHLISLEVSPPPTLSQNLSGSPLITVHLKHRLTRKQHSEATNSSNRVFVYCAFLDFSSGEGVWSNHGCALTRGNLTYSVCRCTHLTNFAILMQVVPLELARGHQVALSSISYVGCSLSVLCLVATLVTFAVLSSVSTIRNQRYHIHANLSFAVLVAQVLLLISFRLEPGTTPCQVMAVLLHYFFLSAFAWMLVEGLHLYSMVIKVFGSEDSKHRYYYGMGWGFPLLICIISLSFAMDSYGTSNNCWLSLASGAIWAFVAPALFVIVVNIGILIAVTRVISQISADNYKIHGDPSAFKLTAKAVAVLLPILGTSWVFGVLAVNGCAVVFQYMFATLNSLQGLFIFLFHCLLNSEVRAAFKHKTKVWSLTSSSARTSNAKPFHSDLMNGTRPGMASTKLSPWDKSSHSAHRVDLSAV [ADGRD1]”, under “GPCR class: B”, the “plasma membrane surface immunostaining intensity” value stood at 1550 ± 390.

For the sequence “MDTGNWSQVAEFIILGFPHLQGVQIYLFLLLLLIYLMTVLGNLLIFLVVCLDSRLHTPMYHFVSILSFSELGYTAATIPKMLANLLSEKKTISFSGCLLQIYFFHSLGATECYLLTAMAYDRYLAICRPLHYPTLMTPTLCAEIAIGCWLGGLAGPVVEISLISRLPFCGPNRIQHVFCDFPPVLSLACTDTSINVLVDFVINSCKILATFLLILCSYVQIICTVLRIPSAAGKRKAISTCASHFTVVLIFYGSILSMYVQLKKSYSLDYDQALAVVYSVLTPFLNPFIYSLRNKEIKEAVRRQLKRIGILA [OR6N1]”, for the setting “GPCR class: A (Olfactory)”, the “plasma membrane surface immunostaining intensity” value is 347 ± 130.

Take “MANVTLVTGFLLMGFSNIQKLRILYGVLFLLIYLAALMSNLLIITLITLDVKLQTPMYFFLKNLSFLDVFLVSVPIPKFIVNNLTHNNSISILGCAFQLLLMTSFSAGEIFILTAMSYDRYVAICCPLNYEVIMNTGVCVLMASVSWAIGGLFGTAYTAGTFSMPFCGSSVIPQFFCDVPSLLRISCSETLMVIYAGIGVGACLSISCFICIVISYIYIFSTVLKIPTTKGQSKAFSTCFPHLTVFTVFIITAYFVYLKPPSNSPSVIDRLLSVIYTVMPPVFNPVTYSLRNNDMKCALIRLLQKTYGQEAYFI [OR14A2]”: the “plasma membrane surface immunostaining intensity” value (GPCR class: A (Olfactory)) was 133 ± 42.

Turning to “MLSTSRSRFIRNTNESGEEVTTFFDYDYGAPCHKFDVKQIGAQLLPPLYSLVFIFGFVGNMLVVLILINCKKLKCLTDIYLLNLAISDLLFLITLPLWAHSAANEWVFGNAMCKLFTGLYHIGYFGGIFFIILLTIDRYLAIVHAVFALKARTVTFGVVTSVITWLVAVFASVPGIIFTKCQKEDSVYVCGPYFPRGWNNFHTIMRNILGLVLPLLIMVICYSGILKTLLRCRNEKKRHRAVRVIFTIMIVYFLFWTPYNIVILLNTFQEFFGLSNCESTSQLDQATQVTETLGMTHCCINPIIYAFVGEKFRSLFHIALGCRIAPLQKPVCGGPGVRPGKNVKVTTQGLLDGRGKGKSIGRAPEASLQDKEGA [CCR2]”, the “plasma membrane surface immunostaining intensity” value (GPCR class: A) was determined as 137 ± 20.

Regarding “MDNITWMASHTGWSDFILMGLFRQSKHPMANITWMANHTGWSDFILLGLFRQSKHPALLCVVIFVVFLMALSGNAVLILLIHCDAHLHTPMYFFISQLSLMDMAYISVTVPKMLLDQVMGVNKISAPECGMQMFFYVTLAGSEFFLLATMAYDRYVAICHPLRYPVLMNHRVCLFLSSGCWFLGSVDGFTFTPITMTFPFRGSREIHHFFCEVPAVLNLSCSDTSLYEIFMYLCCVLMLLIPVVIISSSYLLILLTIHGMNSAEGRKKAFATCSSHLTVVILFYGAAIYTYMLPSSYHTPEKDMMVSVFYTILTPVVNPLIYSLRNKDVMGALKKMLTVEPAFQKAME [OR2T4]”, under “GPCR class: A (Olfactory)”, the “plasma membrane surface immunostaining intensity” value was found to be 122 ± 21.

Consider “MASFSAETNSTDLLSQPWNEPPVILSMVILSLTFLLGLPGNGLVLWVAGLKMQRTVNTIWFLHLTLADLLCCLSLPFSLAHLALQGQWPYGRFLCKLIPSIIVLNMFASVFLLTAISLDRCLVVFKPIWCQNHRNVGMACSICGCIWVVAFVMCIPVFVYREIFTTDNHNRCGYKFGLSSSLDYPDFYGDPLENRSLENIVQPPGEMNDRLDPSSFQTNDHPWTVPTVFQPQTFQRPSADSLPRGSARLTSQNLYSNVFKPADVVSPKIPSGFPIEDHETSPLDNSDAFLSTHLKLFPSASSNSFYESELPQGFQDYYNLGQFTDDDQVPTPLVAITITRLVVGFLLPSVIMIACYSFIVFRMQRGRFAKSQSKTFRVAVVVVAVFLVCWTPYHIFGVLSLLTDPETPLGKTLMSWDHVCIALASANSCFNPFLYALLGKDFRKKARQSIQGILEAAFSEELTRSTHCPSNNVISERNSTTV [C3AR1]”, for which, where the note is “GPCR class: A”, the “plasma membrane surface immunostaining intensity” value came to 327 ± 41.

For the sequence “MVLEVSDHQVLNDAEVAALLENFSSSYDYGENESDSCCTSPPCPQDFSLNFDRAFLPALYSLLFLLGLLGNGAVAAVLLSRRTALSSTDTFLLHLAVADTLLVLTLPLWAVDAAVQWVFGSGLCKVAGALFNINFYAGALLLACISFDRYLNIVHATQLYRRGPPARVTLTCLAVWGLCLLFALPDFIFLSAHHDERLNATHCQYNFPQVGRTALRVLQLVAGFLLPLLVMAYCYAHILAVLLVSRGQRRLRAMRLVVVVVVAFALCWTPYHLVVLVDILMDLGALARNCGRESRVDVAKSVTSGLGYMHCCLNPLLYAFVGVKFRERMWMLLLRLGCPNQRGLQRQPSSSRRDSSWSETSEASYSGL [CXCR3]”, the “plasma membrane surface immunostaining intensity” value (GPCR class: A) was 530 ± 49.
